Test results: US20230002480A1

What was measured:
Experiment in all cases: cell-based or functional assay
[1] = molecular target: HIV-1 Env of pseudovirus 1012_11_TC21_3257 (HIV-1)
[2] = molecular target: HIV-1 Env of pseudovirus 191955_A11 (HIV-1)
[3] = molecular target: HIV-1 Env of pseudovirus 211-9 (HIV-1)
[4] = molecular target: HIV-1 Env of pseudovirus 235-47 (HIV-1)
[5] = molecular target: HIV-1 Env of pseudovirus 263-8 (HIV-1)
[6] = molecular target: HIV-1 Env of pseudovirus 3365.v2.c2 (HIV-1)
[7] = molecular target: HIV-1 Env of pseudovirus 6240_08_TA5_4622 (HIV-1)
[8] = molecular target: HIV-1 Env of pseudovirus 7030102001E5(Rev-) (HIV-1)
[9] = molecular target: HIV-1 Env of pseudovirus 9004SS_A3_4 (HIV-1)
[10] = molecular target: HIV-1 Env of pseudovirus 928-28 (HIV-1)
[11] = molecular target: HIV-1 Env of pseudovirus BJOX009000.02.4 (HIV-1)
[12] = molecular target: HIV-1 Env of pseudovirus BJOX028000.10.3 (HIV-1)
[13] = molecular target: HIV-1 Env of pseudovirus C1080.c03 (HIV-1)
[14] = molecular target: HIV-1 Env of pseudovirus CAAN5342.A2 (HIV-1)
[15] = molecular target: HIV-1 Env of pseudovirus CNE21 (HIV-1)
[16] = molecular target: HIV-1 Env of pseudovirus Ce0682_E4 (HIV-1)
[17] = molecular target: HIV-1 Env of pseudovirus Ce1176_A3 (HIV-1)
[18] = molecular target: HIV-1 Env of pseudovirus Ce2010_F5 (HIV-1)
[19] = molecular target: HIV-1 Env of pseudovirus Ce2060_G9 (HIV-1)
[20] = molecular target: HIV-1 Env of pseudovirus HIV-001428-2.42 (HIV-1)
[21] = molecular target: HIV-1 Env of pseudovirus HIV-16055-2.3 (HIV-1)
[22] = molecular target: HIV-1 Env of pseudovirus RHPA4259.7 (HIV-1)
[23] = molecular target: HIV-1 Env of pseudovirus T250-4 (HIV-1)
[24] = molecular target: HIV-1 Env of pseudovirus T257-31 (HIV-1)
[25] = molecular target: HIV-1 Env of pseudovirus TRJO4551.58 (HIV-1)
[26] = molecular target: HIV-1 Env of pseudovirus X1254_c3 (HIV-1)
[27] = molecular target: HIV-1 Env of pseudovirus ZM109F.PB4 (HIV-1)
[28] = molecular target: HIV-1 Env of pseudovirus ZM197M.PB7 (HIV-1)
[29] = molecular target: HIV-1 Env of pseudovirus ZM53M.PB12 (HIV-1)

With N49P7 (antibody) the neutralization IC50 [1] was 0.046 mg/L, the neutralization IC80 [1] was 0.125 mg/L and the neutralization MPI [1] was 100. The neutralization IC50 [2] was 1.81 mg/L, the neutralization IC80 [2] was 8.87 mg/L and the neutralization MPI [2] was 99. It also gave a neutralization IC50 [3] of 0.22 mg/L, a neutralization IC80 [3] of 0.767 mg/L and a neutralization MPI [3] of 100. It also gave a neutralization IC50 [4] of 0.045 mg/L, a neutralization IC80 [4] of 0.3 mg/L and a neutralization MPI [4] of 99. For the same substance, the neutralization IC50 [5] was 0.056 mg/L, the neutralization IC80 [5] was 0.201 mg/L and the neutralization MPI [5] was 100. For the same substance, the neutralization IC50 [6] was 0.07 mg/L, the neutralization IC80 [6] was 0.186 mg/L and the neutralization MPI [6] was 100. The neutralization IC50 [7] was 0.457 mg/L, the neutralization IC80 [7] was 1.73 mg/L and the neutralization MPI [7] was 100. The neutralization IC50 [8] was 0.184 mg/L, the neutralization IC80 [8] was 0.832 mg/L and the neutralization MPI [8] was 100. It also gave a neutralization IC50 [9] of 0.125 mg/L, a neutralization IC80 [9] of 0.39 mg/L and a neutralization MPI [9] of 100. It also gave a neutralization IC50 [10] of 0.167 mg/L, a neutralization IC80 [10] of 0.579 mg/L and a neutralization MPI [10] of 100. For the same substance, the neutralization IC50 [11] was 0.113 mg/L, the neutralization IC80 [11] was 0.506 mg/L and the neutralization MPI [11] was 100. It also gave a neutralization IC50 [12] of 0.02 mg/L, a neutralization IC80 [12] of 0.123 mg/L and a neutralization MPI [12] of 100. For the same substance, the neutralization IC50 [13] was 0.114 mg/L, the neutralization IC80 [13] was 0.765 mg/L and the neutralization MPI [13] was 100. The neutralization IC50 [14] was 0.409 mg/L, the neutralization IC80 [14] was 1.21 mg/L and the neutralization MPI [14] was 100. For the same substance, the neutralization IC50 [15] was 0.756 mg/L, the neutralization IC80 [15] was 6.02 mg/L and the neutralization MPI [15] was 97. For the same substance, the neutralization IC50 [16] was 0.041 mg/L, the neutralization IC80 [16] was 0.131 mg/L and the neutralization MPI [16] was 100. The neutralization IC50 [17] was 0.204 mg/L, the neutralization IC80 [17] was 0.589 mg/L and the neutralization MPI [17] was 100. For the same substance, the neutralization IC50 [18] was 0.13 mg/L, the neutralization IC80 [18] was 0.547 mg/L and the neutralization MPI [18] was 100. The neutralization IC50 [19] was 0.661 mg/L, the neutralization IC80 [19] was 2.55 mg/L and the neutralization MPI [19] was 100. It also gave a neutralization IC50 [20] of 0.006 mg/L, a neutralization IC80 [20] of 0.02 mg/L and a neutralization MPI [20] of 100. The neutralization IC50 [21] was 0.057 mg/L, the neutralization IC80 [21] was 0.28 mg/L and the neutralization MPI [21] was 100. It also gave a neutralization IC50 [22] of 0.083 mg/L, a neutralization IC80 [22] of 0.246 mg/L and a neutralization MPI [22] of 100. For the same substance, the neutralization IC50 [23] was 2.07 mg/L, the neutralization IC80 [23] was 21.4 mg/L and the neutralization MPI [23] was 91. For the same substance, the neutralization IC50 [24] was 0.158 mg/L, the neutralization IC80 [24] was 0.619 mg/L and the neutralization MPI [24] was 100. It also gave a neutralization IC50 [25] of 0.104 mg/L, a neutralization IC80 [25] of 0.351 mg/L and a neutralization MPI [25] of 100. It also gave a neutralization IC50 [26] of 2.97 mg/L, a neutralization IC80 [26] of 13.6 mg/L and a neutralization MPI [26] of 100. The neutralization IC50 [27] was 0.034 mg/L, the neutralization IC80 [27] was 0.153 mg/L and the neutralization MPI [27] was 100. The neutralization IC50 [28] was 0.109 mg/L, the neutralization IC80 [28] was 0.347 mg/L and the neutralization MPI [28] was 100. For the same substance, the neutralization IC50 [29] was 0.251 mg/L, the neutralization IC80 [29] was 0.8 mg/L and the neutralization MPI [29] was 100.

N49P7.1 (antibody) was tested, and the neutralization IC50 [1] was 0.063 mg/L, the neutralization IC80 [1] was 0.176 mg/L and the neutralization MPI [1] was 100. It also gave a neutralization IC50 [2] of 1.99 mg/L, a neutralization IC80 [2] of 10.1 mg/L and a neutralization MPI [2] of 98. For the same substance, the neutralization IC50 [3] was 0.34 mg/L, the neutralization IC80 [3] was 1.17 mg/L and the neutralization MPI [3] was 100. For the same substance, the neutralization IC50 [4] was 0.078 mg/L, the neutralization IC80 [4] was 0.419 mg/L and the neutralization MPI [4] was 97. For the same substance, the neutralization IC50 [5] was 0.104 mg/L, the neutralization IC80 [5] was 0.392 mg/L and the neutralization MPI [5] was 100. It also gave a neutralization IC50 [6] of 0.088 mg/L, a neutralization IC80 [6] of 0.289 mg/L and a neutralization MPI [6] of 100. The neutralization IC50 [7] was 0.509 mg/L, the neutralization IC80 [7] was 1.95 mg/L and the neutralization MPI [7] was 100. The neutralization IC50 [8] was 0.11 mg/L, the neutralization IC80 [8] was 0.498 mg/L and the neutralization MPI [8] was 100. It also gave a neutralization IC50 [9] of 0.221 mg/L, a neutralization IC80 [9] of 0.841 mg/L and a neutralization MPI [9] of 100. It also gave a neutralization IC50 [10] of 0.23 mg/L, a neutralization IC80 [10] of 0.775 mg/L and a neutralization MPI [10] of 100. For the same substance, the neutralization IC50 [11] was 0.219 mg/L, the neutralization IC80 [11] was 0.756 mg/L and the neutralization MPI [11] was 100. For the same substance, the neutralization IC50 [12] was 0.031 mg/L, the neutralization IC80 [12] was 0.29 mg/L and the neutralization MPI [12] was 100. The neutralization IC50 [13] was 0.144 mg/L, the neutralization IC80 [13] was 1.05 mg/L and the neutralization MPI [13] was 100. For the same substance, the neutralization IC50 [14] was 0.55 mg/L, the neutralization IC80 [14] was 1.59 mg/L and the neutralization MPI [14] was 100. It also gave a neutralization IC50 [15] of 1.58 mg/L, a neutralization IC80 [15] of 12.2 mg/L and a neutralization MPI [15] of 96. For the same substance, the neutralization IC50 [16] was 0.026 mg/L, the neutralization IC80 [16] was 0.099 mg/L and the neutralization MPI [16] was 100. For the same substance, the neutralization IC50 [17] was 0.279 mg/L, the neutralization IC80 [17] was 1.01 mg/L and the neutralization MPI [17] was 100. It also gave a neutralization IC50 [18] of 0.055 mg/L, a neutralization IC80 [18] of 0.208 mg/L and a neutralization MPI [18] of 100. It also gave a neutralization IC50 [19] of 0.473 mg/L, a neutralization IC80 [19] of 2.41 mg/L and a neutralization MPI [19] of 100. The neutralization IC50 [20] was 0.009 mg/L, the neutralization IC80 [20] was 0.029 mg/L and the neutralization MPI [20] was 100. The neutralization IC50 [21] was 0.088 mg/L, the neutralization IC80 [21] was 0.318 mg/L and the neutralization MPI [21] was 100. For the same substance, the neutralization IC50 [22] was 0.108 mg/L, the neutralization IC80 [22] was 0.292 mg/L and the neutralization MPI [22] was 100. For the same substance, the neutralization IC50 [23] was 2.27 mg/L, the neutralization IC80 [23] was 24.7 mg/L and the neutralization MPI [23] was 89. The neutralization IC50 [24] was 0.209 mg/L, the neutralization IC80 [24] was 1.04 mg/L and the neutralization MPI [24] was 100. The neutralization IC50 [25] was 0.156 mg/L, the neutralization IC80 [25] was 0.529 mg/L and the neutralization MPI [25] was 100. It also gave a neutralization IC50 [26] of 3.96 mg/L, a neutralization IC80 [26] of 18.2 mg/L and a neutralization MPI [26] of 96. For the same substance, the neutralization IC50 [27] was 0.055 mg/L, the neutralization IC80 [27] was 0.199 mg/L and the neutralization MPI [27] was 100. For the same substance, the neutralization IC50 [28] was 0.144 mg/L, the neutralization IC80 [28] was 0.539 mg/L and the neutralization MPI [28] was 100. The neutralization IC50 [29] was 0.287 mg/L, the neutralization IC80 [29] was 1 mg/L and the neutralization MPI [29] was 100.
